B1: Kpep-splitUb (N): mRNA Display molecule of splitUb(N) with positively charged K-peptide (SEQ ID NO: 55) (conjugate)
chain: MKVSALKENVSALKEKVSALTEKVSALKEKVSALKEGSGSGSGSMQIFVKTLTGKTATLEVEPSDTIENVKAKIQDKEGIPGSGSGSGSKK
modifications: mRNA display linkage; Kpep-splitUb(N)-GS4
B2: SNAP(N): mRNA Display molecule of SNAP tag N-terminal fragment with C-terminal GS linker (SEQ ID NO: 42) (conjugate)
chain: MDKDCEMKRTTLDSPLGKLELSGCEQGLHRIIFLGKGTSAADAVEVPAPAAVLGGPEPLMQATAWLNAYFHQPEAIEEFPVPALHHPVFQQGSGSGSGSGSKK
modifications: mRNA display linkage; splitSNAP (N)-GS5
B3: SNAP(full): mRNA Display molecule of full-length SNAP tag with C-terminal GS linker (SEQ ID NO: 44) (conjugate)
chain: MDKDCEMKRTTLDSPLGKLELSGCEQGLHRIIFLGKGTSAADAVEVPAPAAVLGGPEPLMQATAWLNAYFHQPEAIEEFPVPALHHPVFQQESFTRQVLWKLLKVVKFGEVISYSHLAALAGNPAATAAVKTALSGNPVPILIPCHRVVQGDLDVGGYEGGLAVKEWLLAHEGHRLGKPGLGPAGGSAFKLEVNGSGSGSGSGSKK
modifications: mRNA display linkage; SNAP (full)-GS5
B4: Epep-splitUb (N): mRNA Display molecule of splitUb(N) with negatively charged E-peptide (SEQ ID NO: 56) (conjugate)
chain: MKVSALENEVSALEKEVSVLEKEVSALEKEVRALEKGSGSGSGSMQIFVKTLTGKTATLEVEPSDTIENVKAKIQDKEGIPGSGSGSGSKK
modifications: mRNA display linkage; Epep-splitUb(N)-GS4
B5: SNAP(C): mRNA Display molecule of SNAP tag C-terminal fragment with C-terminal GS linker (SEQ ID NO: 43) (conjugate)
chain: MVDESFTRQVLWKLLKVVKFGEVISYSHLAALAGNPAATAAVKTALSGNPVPILIPCHRVVQGDLDVGGYEGGLAVKEWLLAHEGHRLGKPGLGPAGGSAFKLEVNGSGSGSGSGSKK
modifications: mRNA display linkage; SNAP (C)-GS5

How the values were obtained:
[1] = system: anti-ubiquitin antibody fixed bead; assay: Complementation assay of splitUbiquitin with Kpep/Epep charged peptides using mRNA display; assay type: binding; details: for Recovered nucleic acid amount (molecules): Display molecules 0.2 μM each (pairs) or 0.4 μM (alone), anti-ubiquitin antibody beads, qPCR; for Recovery rate (%): apparent recovery rate corrected with display efficiency; for Apparent recovery rate (%): recovered/input nucleic acid amount
Experimental: Next, Display molecules composed of constructs (SEQ ID NO: 55 (P-11) to SEQ ID NO: 57 (P-13)) in which splitUb(N) and splitUb(C) each were added with a charged peptide sequence (K-peptide containing an amino acid having a positive charge) (sometimes referred to as “Kpep”) or E-peptide containing an amino acid having a negative charge (“Epep”)) were prepared. When the added peptides are attracted to each other by charges, splitUbs become in proximity to each other and recovered by an anti-ubiquitin antibody. Conversely, when the added peptides are repelled to each other by charges, splitUbs are not recovered. Once this is validated, the complexation of molecules added to splitUbs can be evaluated with the recovery rate through ubiquitin and anti-ubiquitin antibodies.
Reactions were made under the same conditions as in condition 1, except that, in condition 2, the Display molecule of Epep-splitUb(N) and the Display molecule of Epep-splitUb(C) were added at 0.2 μM; in condition 3, the Display molecule of Kpep-splitUb(N) was added at 0.4 μM; in condition 4, the Display molecule of Epep-splitUb(N) was added at 0.4 μM; and in condition 5, the Display molecule of Epep-splitUb(C) was added at 0.4 μM.

[2] = Complementation assay of splitSNAP-tag using mRNA display (reaction with SNAP-Biotin, streptavidin pull-down, qPCR); assay type: biochemical; details: for Recovery rate (%): apparent recovery rate corrected with display efficiency; for Recovered nucleic acid amount (molecules): reaction with SNAP-Biotin 37° C. 30 minutes, streptavidin pull-down, qPCR; for Apparent recovery rate (%): recovered / theoretical value of added nucleic acid amount
Experimental: To this solution, ¼ amount of a PBS solution containing 5 mM DTT, 2500 nM SNAP-Biotin (New England BioLabs, Inc.) was added, and the enzymatic reaction was performed at 37° C. for 30 minutes.

Molecule | Recovered nucleic acid amount (molecules) [1] [molecules] | Recovery rate (%) [1] [%] | Apparent recovery rate (%) [1] [%] | Recovery rate (%) [2] [%] | Recovered nucleic acid amount (molecules) [2] [molecules] | Apparent recovery rate (%) [2] [%] | recovery rate higher than other controls ([2]; in the presence of SNAP-Biotin)
B1 | 2.28E+06 | 0.0008 | 0.0005 | – | – | – | –
B2 | – | – | – | 0.097 | 6.26E+07 | 0.062 | –
B3 | – | – | – | 14.364 | 4.78E+09 | 4.740 | at least 50 times
B4 | 3.77E+05 | 0.0004 | 0.0001 | – | – | – | –
B5 | – | – | – | 0.035 | 6.76E+06 | 0.007 | –

Source: patent US20240069033A1, “METHOD FOR SCREENING FOR CANDIDATE MOLECULE CAPABLE OF FORMING COMPLEX IN CONJUNCTION WITH PLURALITY OF TARGET MOLECULES” (Chugai Seiyaku Kabushiki Kaisha, priority 2020, published 2024)
